Data from PMC3753642.
Where two headings read alike, the source gives them in different places.

B1: D16 (ssRNA)
RNA: CGAAUUUUUUAAGUGC
B2: Oligo CU (ssRNA)
RNA: GUGGUCAGUCGAGUGGUUUUUU
B3: D16 unlabeled (ssRNA)
RNA: CGAAUUUUUUAAGUGC
B4: Oligo CA (ssRNA)
RNA: GUGGUCAGUCGAGUGGAAAAAAAAAAAAAAAAAA
B5: A18 (ssRNA)
RNA: AAAAAAAAAAAAAAAAAA

How the values were obtained:
[1] = target: T1, Hfq TM (Escherichia coli, UniProt P0A6X3 1-102, R16A;R17A;R19D); experiment: fluorescence anisotropy
[2] = target: Hfq:R16A,S65C-Cy3 (Escherichia coli, UniProt P0A6X3 1-102, R16A;S65C); experiment: stopped-flow FRET
[3] = target: T2, Hfq:R16A (Escherichia coli, UniProt P0A6X3 1-102, R16A); experiment: fluorescence anisotropy
[4] = target: T3, Hfq WT (Escherichia coli, UniProt P0A6X3 1-102); experiment: fluorescence anisotropy
[5] = target: T3, Hfq WT; experiment: fluorescence anisotropy; remark: listed apart in the source
[6] = target: Hfq:S38W (Escherichia coli, UniProt P0A6X3 1-102, S38W); experiment: Trp fluorescence quenching
[7] = target: T2, Hfq:R16A; experiment: fluorescence anisotropy; remark: listed apart in the source
[8] = target: T1, Hfq TM; experiment: fluorescence anisotropy; remark: listed apart in the source

Binder | Kd [4] | binding result [6] | Kd [7] | also measured
B1 | 22.5 nM |  |  | Kd [1]: 17.5 nM; binding result [2]: binds; Kd [3]: 39.8 nM
B2 |  | binds | 0.07 nM | Kd [5]: 0.1 nM
B3 |  | binds |  | 
B4 |  | binds |  | 
B5 | 13.2 nM |  | 2.3 nM | Kd [8]: 16.8 nM
